Series [1] has as its system T1, O=[N+]([O-])c1ccc(CO)cc1.
T1 construct: N-terminal His-SUMO fusion (Champion pET SUMO), tag not cleaved; E. coli BL21(DE3)
Kind of series: coupled HRP H2O2 assay, Michaelis-Menten. The following applies: O2 (co-substrate), 100 mM sodium phosphate pH 7.0, 30 °C. It counts as biochemical, Methylovorus sp. MP688. An excerpt: (§1) coupled HRP H2O2 assay, Michaelis-Menten on 5-(hydroxymethyl)furfural oxidase (HMFO)

Series [2] has as its system T2, O=Cc1ccc([N+](=O)[O-])cc1.
T2 construct: N-terminal His-SUMO fusion (Champion pET SUMO), tag not cleaved; E. coli BL21(DE3)
The series is described as follows: coupled HRP H2O2 assay, Michaelis-Menten. The class given is biochemical, Methylovorus sp. MP688. The following applies: O2 (co-substrate), 100 mM sodium phosphate pH 7.0, 30 °C, aldehyde oxidised via its gem-diol hydrate.
Source text: as §1

Substrate in series [3]: O=[N+]([O-])c1ccc(CO)cc1
The series is described as follows: purified protein. The conditions noted are these: O2 (co-substrate), 100 mM sodium phosphate pH 7.0, 30 °C.

Substrate in series [4]: O=Cc1ccc([N+](=O)[O-])cc1
The series is described as follows: coupled HRP H2O2 assay, Michaelis-Menten. It counts as biochemical, Methylovorus sp. MP688. The conditions noted are these: O2 (co-substrate), 100 mM sodium phosphate pH 7.0, 30 °C, aldehyde oxidised via its gem-diol hydrate.
Source text: as §1

In general, Km refers to the concentration of substrate that gives half-maximal velocity. By kcat is commonly meant the maximal rate divided by the concentration of active sites. The kcat/Km is the turnover number divided by the Michaelis constant. Turning to “5-(hydroxymethyl)furfural oxidase (HMFO) (Methylovorus sp. MP688; V465T)”, in series [1], the Km amounted to 0.03 mM, the kcat was determined as 1.7 s⁻¹ and the kcat/Km stood at 57000 M⁻¹ s⁻¹.
For the molecule “5-(hydroxymethyl)furfural oxidase (HMFO) (Methylovorus sp. MP688; W466H)”, in series [2], the Km turned out to be 0.16 mM, the kcat turned out to be 0.003 s⁻¹ and the kcat/Km was determined as 20 M⁻¹ s⁻¹. In addition, in series [1], the Km was 0.40 mM, the kcat is 0.02 s⁻¹ and the kcat/Km worked out at 50 M⁻¹ s⁻¹.

B1: 5-(hydroxymethyl)furfural oxidase (HMFO) (Methylovorus sp. MP688) (protein)
chain: MTDTIFDYVIVGGGTAGSVLANRLSARPENRVLLIEAGIDTPENNIPPEIHDGLRPWLPRLSGDKFFWPNLTIHRAAEHPGITREPQFYEQGRLLGGGSSVNMVVSNRGLPRDYDEWQALGADGWDWQGVLPYFIKTERDADYGDDPLHGNAGPIPIGRVDSRHWSDFTVAATQALEAAGLPNIHDQNARFDDGYFPPAFTLKGEERFSAARGYLDASVRVRPNLSLWTESRVLKLLTTGNAITGVSVLRGRETLQVQAREVILTAGALQSPAILLRTGIGPAADLHALGIPVLADRPGVGRNLWEHSSIGVVAPLTEQARADASTGKAGSRHQLGIRASSGVDPATPSDLFLHIGADPVSGLASAVFWVNKPSSTGWLKLKDADPFSYPDVDFNLLSDPRDLGRLKAGLRLITHYFAAPSLAKYGLALALSRFAAPQPGGPLLNDLLQDEAALERYLRTNVGGVWHASGTARIGRADDSQAVVDKAGRVYGVTGLRVADASIMPTVPTANTNLPTLMLAEKIADAILTQA
notes: N-terminal His-SUMO fusion (Champion pET SUMO), tag not cleaved; E. coli BL21(DE3)
Regarding B1, in series [3], the Km was 0.26 mM, the kcat came to 7.4 s⁻¹ and the kcat/Km was 28000 M⁻¹ s⁻¹. In series [4], the Km amounted to 0.31 mM, the kcat was determined as 0.3 s⁻¹ and the kcat/Km came to 970 M⁻¹ s⁻¹.

The values above are taken from article PMC6149797, “Rational Engineering of a Flavoprotein Oxidase for Improved Direct Oxidation of Alcohols to Carboxylic Acids” (Molecules : A Journal of Synthetic Chemistry and Natural …, 2017).
